Measurements taken from paper PMC10750099, “Mapping immunological and host receptor binding determinants of SARS-CoV spike protein utilizing the Qubevirus platform” (The Journal of Biological Chemistry, 2023).

Biological target: T1, recombinant human angiotensin-converting enzyme 2 (human, UniProt Q9BYF1 18-740)
T1 construct: also called rhACE2; hACE2
Assay: ELISA
Details: both partners purified

T1 sequence (Q9BYF1 18-740): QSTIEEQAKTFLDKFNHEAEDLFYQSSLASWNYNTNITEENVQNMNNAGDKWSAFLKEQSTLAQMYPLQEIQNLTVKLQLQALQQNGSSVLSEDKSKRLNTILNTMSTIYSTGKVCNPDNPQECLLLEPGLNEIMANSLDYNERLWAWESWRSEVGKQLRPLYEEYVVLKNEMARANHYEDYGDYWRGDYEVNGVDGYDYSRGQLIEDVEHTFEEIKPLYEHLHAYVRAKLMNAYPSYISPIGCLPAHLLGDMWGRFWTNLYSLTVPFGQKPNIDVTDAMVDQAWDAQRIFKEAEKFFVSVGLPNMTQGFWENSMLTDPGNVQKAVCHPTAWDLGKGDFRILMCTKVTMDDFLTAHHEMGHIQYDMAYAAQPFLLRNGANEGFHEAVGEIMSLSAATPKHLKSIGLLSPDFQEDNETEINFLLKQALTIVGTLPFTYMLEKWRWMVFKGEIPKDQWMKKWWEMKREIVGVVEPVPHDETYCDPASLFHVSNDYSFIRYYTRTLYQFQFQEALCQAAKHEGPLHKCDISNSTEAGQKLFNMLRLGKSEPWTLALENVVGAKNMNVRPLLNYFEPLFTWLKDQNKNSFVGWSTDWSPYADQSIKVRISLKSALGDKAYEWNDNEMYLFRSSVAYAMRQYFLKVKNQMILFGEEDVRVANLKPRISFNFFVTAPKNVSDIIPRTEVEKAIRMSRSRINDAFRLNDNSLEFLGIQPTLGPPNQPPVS

B1: recombinant Qβ phage displaying the rhACE2-binding motif S437-492 of SARS-CoV spike fragment F6 on A1 (domain or fragment)
chain: NYKYRYLRHGKLRPFERDISNVPFSPDGKPCTPPALNCYWPLNDYGFYTTTGIGYQ
notes: also called GF6 motif (S437-492)
binding result: binds
